Laboratory results from publication PMC8041291.

Columns and labels:
[1] = system: Cterm (position 3, ---ECG-----); test: potentiometry; settings: 25 °C; 0.1 M (4 mM HNO3 + 96 mM KNO3); none (4 mM HNO3 / 96 mM KNO3); metal-free peptide, reduced thiols, argon atmosphere, 0.5-1.5 mM ligand
[2] = system: Cys2 (position 2, ----ECG----); test: potentiometry; settings: 25 °C; 0.1 M (4 mM HNO3 + 96 mM KNO3); none (4 mM HNO3 / 96 mM KNO3); metal-free peptide, reduced thiols, argon atmosphere, 0.5-1.5 mM ligand
[3] = system: Glu1 (position 1, -----ECG---); test: potentiometry; settings: 25 °C; 0.1 M (4 mM HNO3 + 96 mM KNO3); none (4 mM HNO3 / 96 mM KNO3); metal-free peptide, reduced thiols, argon atmosphere, 0.5-1.5 mM ligand
[4] = system: Nterm (position 1, -----ECG---); test: potentiometry; settings: 25 °C; 0.1 M (4 mM HNO3 + 96 mM KNO3); none (4 mM HNO3 / 96 mM KNO3); metal-free peptide, reduced thiols, argon atmosphere, 0.5-1.5 mM ligand
[5] = biological target: Cys1; test: NMR; settings: metal-free PC2; cited from earlier work
[6] = biological target: Cys2; test: NMR; settings: metal-free PC2; cited from earlier work
[7] = biological target: Nterm1; test: NMR; settings: metal-free PC2; cited from earlier work
[8] = biological target: Cterm5; test: potentiometry; settings: 25 °C; 0.1 M (4 mM HNO3 + 96 mM KNO3); none (4 mM HNO3 / 96 mM KNO3); metal-free peptide, reduced thiols, argon atmosphere, 0.5-1.5 mM ligand
[9] = biological target: Cys1; test: potentiometry; settings: 25 °C; 0.1 M (4 mM HNO3 + 96 mM KNO3); none (4 mM HNO3 / 96 mM KNO3); metal-free peptide, reduced thiols, argon atmosphere, 0.5-1.5 mM ligand
[10] = biological target: Cys2; test: potentiometry; settings: 25 °C; 0.1 M (4 mM HNO3 + 96 mM KNO3); none (4 mM HNO3 / 96 mM KNO3); metal-free peptide, reduced thiols, argon atmosphere, 0.5-1.5 mM ligand
[11] = biological target: Glu1; test: potentiometry; settings: 25 °C; 0.1 M (4 mM HNO3 + 96 mM KNO3); none (4 mM HNO3 / 96 mM KNO3); metal-free peptide, reduced thiols, argon atmosphere, 0.5-1.5 mM ligand
[12] = biological target: Glu2; test: potentiometry; settings: 25 °C; 0.1 M (4 mM HNO3 + 96 mM KNO3); none (4 mM HNO3 / 96 mM KNO3); metal-free peptide, reduced thiols, argon atmosphere, 0.5-1.5 mM ligand
[13] = biological target: Nterm1; test: potentiometry; settings: 25 °C; 0.1 M (4 mM HNO3 + 96 mM KNO3); none (4 mM HNO3 / 96 mM KNO3); metal-free peptide, reduced thiols, argon atmosphere, 0.5-1.5 mM ligand

Molecule | pKa [1] | pKa [2] | pKa [3] | pKa [4] | pKa [5] | pKa [6] | pKa [7] | pKa [8] | pKa [9] | pKa [10] | pKa [11] | pKa [12] | pKa [13]
Glutathione (GSH, reduced) (not applicable (commercial reduced L-glutathione, Sigma-Aldrich)) | 3.64 | 8.76 | 1.95 | 9.65 | – | – | – | – | – | – | – | – | –
ECECG | – | – | – | – | 9.53 | 9.40 | 10.01 | 4.30 | 9.69 | 8.59 | 2.43 | 3.17 | 10.25
